Experimental data from paper PMC9426568, “Glucose-1,6-Bisphosphate, a Key Metabolic Regulator, Is Synthesized by a Distinct Family of α-Phosphohexomutases Widely Distributed in Prokaryotes” (mBio, 2022).

How the values were obtained:
Sll0726 = biological target: T1, Sll0726 (Synechocystis sp. PCC 6803, UniProt P74643); assay: G6PDH-coupled PGM assay, NADPH at […] nm; type: biochemical; conditions: inhibitor, 100 μM, varied Glc-1P, without Glc-1,6-BP; 10 mM MgCl2, pH 7.5, 30°C
T1 construct: gene pgm; recombinant, Strep-tagged, expressed in E. coli Rosetta-gami (DE3), purified
T1 sequence (P74643 1-567): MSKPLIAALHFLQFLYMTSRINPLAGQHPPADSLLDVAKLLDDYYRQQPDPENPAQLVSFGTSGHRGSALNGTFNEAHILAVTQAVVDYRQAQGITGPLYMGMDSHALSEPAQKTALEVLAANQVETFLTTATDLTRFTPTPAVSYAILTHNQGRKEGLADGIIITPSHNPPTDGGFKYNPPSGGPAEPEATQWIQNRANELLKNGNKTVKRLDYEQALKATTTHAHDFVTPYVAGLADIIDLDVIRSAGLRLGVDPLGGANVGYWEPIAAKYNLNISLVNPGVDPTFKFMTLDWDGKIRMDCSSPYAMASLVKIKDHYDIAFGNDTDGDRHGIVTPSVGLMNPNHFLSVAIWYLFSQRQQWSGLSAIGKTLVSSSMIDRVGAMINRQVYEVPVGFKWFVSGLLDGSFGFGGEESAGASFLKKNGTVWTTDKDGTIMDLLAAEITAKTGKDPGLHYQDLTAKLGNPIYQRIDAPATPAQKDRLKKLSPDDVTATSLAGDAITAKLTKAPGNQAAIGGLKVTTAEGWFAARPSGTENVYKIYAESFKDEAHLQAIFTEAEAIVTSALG

purified protein [1] = substrate: O=P(O)(O)OC[C@H]1O[C@H](OP(=O)(O)O)[C@H](O)[C@@H](O)[C@@H]1O; assay: purified protein; type: biochemical, Synechocystis sp. PCC 6803; conditions: co-substrate 0.5 mM Frc-6P, 10 mM MgCl2, 150 mM KCl, HEPES-KOH pH 7.5, 30°C, lowest measurable concentration already saturating
purified protein [2] = substrate: O=P(O)(O)O[C@H]1O[C@H](CO)[C@@H](O)[C@H](O)[C@H]1O; assay: purified protein; type: biochemical, Synechocystis sp. PCC 6803; conditions: with 60 μM Glc-1,6-BP (activator), 10 mM MgCl2, 150 mM KCl, HEPES-KOH pH 7.5, 30°C

## O=P(O)(O)OC[C@H]1OC(O)(COP(=O)(O)O)[C@@H](O)[C@@H]1O (stereo partly drawn) [Frc-1,6-BP]
Sll0726
  G6PDH-coupled PGM assay, NADPH at 340 nm: effect of different concentrations of Frc-1,6-BP on Sll0726 and observed major inhibition

B1: Slr1334 (Synechocystis sp. PCC 6803 substr. Kazusa) (protein)
chain: MVYTPAPIKFGTDGWRGVIAAEFTFERVVLVAAAAAQVLAAEFGSSGREHRLIVGYDRRFMAEQFALLVAQTVQELGFEVWLSESYAPTPAFSWAAHHENALGALVLTASHNPANYLGLKVKGAFGGSVGSDVTEKIEAQLQNSLPQPQAGGSLQYFDPWPSYCQGLQAKVNVQPIREAVQQGKLRVFADVMHGAAASGLERLLGCPIDEINGDRDPLFGGASPEPLPKYVPKLLAALQTAAKAGGPELRVGLIFDGDADRIAAVDGQGNFLSSQGLIPILIYHLATQKGLQGEIVKTVSGSDLIPKLAELYGIPLTETAIGYKYIADRMLTSPVLIGGEESGGIGYGGHIPERDALLSALYVLETVVQSQQDISEQYGRLQEKVCFVSEYDRIDLPLASMDVRTALVQTLNENPLTAIAGEQVTDLLTTDGYKFRMAGGGWLLIRFSGTEPLLRLYCEAPTSSRVQTVLHWAKDWANGVTPAKPAQSSH
notes: recombinant, expressed in E. coli Rosetta-gami (DE3), purified
Purified protein [1]
  kcat: 1.2 ± 0.03 s⁻¹
  kcat/Km: 600000 M⁻¹ s⁻¹
Purified protein [2]
  Km: 90 ± 20 µM
  kcat: 14.4 ± 0.7 s⁻¹
  kcat/Km: 158000 M⁻¹ s⁻¹

B2: Sll0726 (Synechocystis sp. PCC 6803 substr. Kazusa) (protein)
chain: MSKPLIAALHFLQFLYMTSRINPLAGQHPPADSLLDVAKLLDDYYRQQPDPENPAQLVSFGTSGHRGSALNGTFNEAHILAVTQAVVDYRQAQGITGPLYMGMDSHALSEPAQKTALEVLAANQVETFLTTATDLTRFTPTPAVSYAILTHNQGRKEGLADGIIITPSHNPPTDGGFKYNPPSGGPAEPEATQWIQNRANELLKNGNKTVKRLDYEQALKATTTHAHDFVTPYVAGLADIIDLDVIRSAGLRLGVDPLGGANVGYWEPIAAKYNLNISLVNPGVDPTFKFMTLDWDGKIRMDCSSPYAMASLVKIKDHYDIAFGNDTDGDRHGIVTPSVGLMNPNHFLSVAIWYLFSQRQQWSGLSAIGKTLVSSSMIDRVGAMINRQVYEVPVGFKWFVSGLLDGSFGFGGEESAGASFLKKNGTVWTTDKDGTIMDLLAAEITAKTGKDPGLHYQDLTAKLGNPIYQRIDAPATPAQKDRLKKLSPDDVTATSLAGDAITAKLTKAPGNQAAIGGLKVTTAEGWFAARPSGTENVYKIYAESFKDEAHLQAIFTEAEAIVTSALG
notes: recombinant, Strep-tagged, expressed in E. coli Rosetta-gami (DE3), purified
Purified protein [2]
  Km: 190 ± 40 µM
  kcat: 415 ± 30.6 s⁻¹
  kcat/Km: 3.04e+06 M⁻¹ s⁻¹
